Measurements reported in US9803013B2, “Biological materials and uses thereof” (BioInvent International AB, priority 2005, dated 2017).

How the values were obtained:
ICAM-1 = ICAM-1 (Homo sapiens, UniProt P05362); experiment: Binding to recombinant ICAM-1 (ELISA)
Description: FIG. 12C BI-505 binds specifically to ICAM-1. (a) Pre-incubation with recombinant ICAM-1, but not VCAM, blocks BI-505 binding to targeted tumor B cells.
(FIG. 21A) BI-505 IgG1, IgG4 and IgG1 N297Q antibodies were analyzed for binding to recombinant ICAM-1 by ELISA.

primary patient MM cells = experiment: SCID-hu mouse model of multiple myeloma; format: in vivo
Description: Bone marrow cells (>20% plasma cells) from myeloma patients (two patients in experiment 1 [top panel] and two different patients in experiment 2 [lower panel]) were injected into transplanted human fetal bones of SCID-hu mice. Four weeks after myeloma cell inoculation mice were divided into four groups to yield similar mean hIgG levels between groups, each group comprising mice grafted with MM cells from the different patient donors used in the experiment, and twice weekly treatment with 2 mg/kg BI-505, 1 mg/kg bortezomib or 2 mg/kg control human IgG was started (arrow). […] Graphs show mean hIgG concentrations.
Primary human MM cells depend on interactions with bone marrow stromal cells to proliferate and survive. The SCID-hu mouse harbors a human microenvironment where primary patient MM cells proliferate and induce pathology similar to human clinical MM (Yaccoby et al., 1998). MM cell derived human IgG titers were detected (>10 μg/ml) in the serum of SCID-hu mice four weeks after implantation of human MM cells to transplanted human bones, at which time treatment with antibodies (2 mg/kg) or bortezomib (1 mg/kg) began. Human IgG titers increased steadily in control treated SCID-hu mice over the course of experimentation to reach maximal concentrations of 40±5 μg/ml just before sacrifice (FIG. 18B and FIG. 19). […] Two independent experiments were performed with similar results (FIG. 18B and FIG. 19), each with MM cells from two different patient donors (n=4).
Human fetal femurs and tibias, obtained at 17 to 22 gestational weeks, were cut into fragments and implanted subcutaneously in SCID mice (SCID-hu) at age 6 to 8 weeks. Each animal was implanted with one bone fragment. Four weeks after bone implantation, 2 to 14×10^6 bone marrow cells from each patient (two patients per experiment for a total of four patients in two independent experiments, n=4), containing>20% plasma cells were injected directly into the human bone of 6 to 8 SCID-hu mice in a final volume of 30 to 40 μl of phosphate-buffered saline (PBS). One group of mice was implanted with bone only and served as “healthy” bone control. Mouse sera were serially monitored for human immunoglobulin (hIg) and the isotype levels were used as an indicator of myeloma cell growth by elisa. When hIg level reached 10 μg/mL or higher in 2 consecutive measurements after 4 weeks of injection of the tumor cells, the mice were divided into four groups to yield similar mean hIgG levels between groups, each group comprising mice grafted with MM cells from the different patient donors used in each experiment. The four treatment groups were: healthy control group (no myeloma cells injected and no drug treatment), isotype control group (myeloma cells injected and treated with isotype control IgG, 2 mg/kg, i.p., twice weekly), BI505 group (myeloma cells injected and treated with BI505, 2 mg/kg, i.p., twice weekly) and bortezomib group (myeloma cells injected and treated with 1 mg/kg, i.p., twice weekly). In some graphs hIgG levels were normalized to pretreatment (4 weeks) levels and the percent increase or decrease in hIgG levels as a function of treatment and time was analyzed. Normalized data from animals receiving the same treatment (control IgG, BI-505 or bortezomib) but grafted with MM cells from each of the four different patient donors in the two experiments were pooled and statistical difference was assessed by grouped 2-way ANOVA test and Bonferroni's posttest using GraphPad Prism 5 software. Patient myeloma cells were taken after informed consent and with the approval of the local ethics committee. For x-radiography evaluation and quantification of bone mineral density (BMD) mice in the four groups were sacrificed and the implanted human bones were taken out and fixed in 10% formalin solution. Radiographs were taken with an AXR Minishot-100 beryllium source instrument (Associated X-Ray Imaging Corp., Haverhill, Mass., USA) and 100 s exposure at 30 kV. […]

[1] = tested on: human peripheral blood B cells; experiment: Direct cytotoxic effects (PCD, ADCC, CDC) on normal cells; format: cell-based; conditions: antibody cross-linked or not
Description: All experiments were performed in triplicate.
Target cells were harvested as described above (under ADCC heading) and incubated with antibodies at 5 μg/mL for 60 min on ice and then washed. Human serum, normal or heat-inactivated (Sigma, Sweden), was added to tubes and the samples were incubated for 2 hr at 37° C. After completion of incubation, ToPo-Pro-3 (Invitrogen) was added at a final concentration of 0.3 μM and cells were analyzed for membrane permeabilization using flow cytometry.

U266 myeloma cells = experiment: NK-cell deficient NOD/Shi-scid/IL-2Rγ−/− mouse model; format: in vivo; conditions: U266 grafted to NOD/Shi-scid/IL-2Rγ−/− mice
Description: (FIG. 20F) Animal survival following BI-505 or control antibody treatment in a disseminated NK-cell deficient NOD/Shi-scid/IL-2Rγ^−/− mouse model comprising i.v. grafted U266 myeloma cells. ***p<0.001.
Six-eight weeks-old female NOD/Shi-scid IL-2Rγ^−/− mice were obtained from Taconic, Denmark. Five million (5×10^6) RPMI-8226 or U266 tumor cells in 200 μL of RPMI 1640 were intravenously injected into the caudal vein (day 0). The tumor cell injection was performed 2 hr after whole body irradiation of mice (1.5 Gy, Cesium 137, IBL 637). At day 4, mice were randomized into 6 groups and treatment was initiated according to the schedule below.

Chain of ICAM-1 (P05362 28-532): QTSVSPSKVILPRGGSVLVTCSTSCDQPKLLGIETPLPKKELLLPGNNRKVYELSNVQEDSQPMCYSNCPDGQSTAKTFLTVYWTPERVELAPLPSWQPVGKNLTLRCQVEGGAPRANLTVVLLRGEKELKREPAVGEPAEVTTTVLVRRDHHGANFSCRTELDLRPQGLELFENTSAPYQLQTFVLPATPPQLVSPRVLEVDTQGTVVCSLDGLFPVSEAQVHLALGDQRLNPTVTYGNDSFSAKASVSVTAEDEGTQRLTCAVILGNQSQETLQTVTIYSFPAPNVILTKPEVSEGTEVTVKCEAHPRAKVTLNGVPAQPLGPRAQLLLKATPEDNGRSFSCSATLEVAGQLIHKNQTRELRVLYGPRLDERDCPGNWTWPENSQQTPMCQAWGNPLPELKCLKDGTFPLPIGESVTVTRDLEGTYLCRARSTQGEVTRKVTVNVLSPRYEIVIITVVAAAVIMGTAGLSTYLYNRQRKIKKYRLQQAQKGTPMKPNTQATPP

B1: B11: fully human IgG1 antibody specific for ICAM-1; VH and VL sequences of FIG. 10 (SEQ ID NOs. 6 and 8) (antibody, listed as Homo sapiens, V domains shown)
VH: EVQLLESGGGLVQPGGSLRLSCAASGFTFSNAWMSWVRQAPGKGLEWVAFIWYDGSNKYYADSVKGRFTISRDNSKNTLYLQMNSLRAEDTAVYYCARYSGWYFDYWGQGTLVTVSS
VL: QSVLTQPPSASGTPGQRVTISCTGSSSNIGAGYDVHWYQQLPGTAPKLLIYDNNNRPSGVPDRFSGSKSGTSASLAISGLRSEDEADYYCQSYDSSLSAWLFGGGTKLTVLG
binding to recombinant protein (ICAM-1): binds dose-dependently
serum hIgG relative to pre-treatment levels (primary patient MM cells; 2 mg/kg twice weekly from four weeks after MM cell implantation): 91±22%
bone osteoclasts (primary patient MM cells; TRAP staining, compared to control-treated mice): reduced numbers of bone osteoclasts
bone mineral density (primary patient MM cells; X-radiography of implanted human bones): decreased loss of bone mineral density
serum human IgG levels (primary patient MM cells; antibody 2 mg/kg or bortezomib 1 mg/kg twice weekly): halted or reduced serum human IgG levels to below pre-treatment levels
tumor burden in human bone implants (primary patient MM cells; human CD138 immunohistochemistry): decreased tumor burden
cell death in normal cells [1]: did not induce cell death
antitumor activity (U266 myeloma cells): significant antitumor activity
